Kd data for 4 molecules are collected here from publication PMC5902653 (The Analyst, 2018).

Read-outs that look alike come from different tables or passages of the source. *: point of attachment. FITC = O=C1OC2(c3ccc(O)cc3Oc3cc(O)ccc32)c2ccc(NC(=S)*)cc21; βAla = NCCC(=O)O

For orientation: Kd means a measure of binding affinity in units of concentration. Read a high Kd as weaker binding.

What all share (assay): cross-linking
Assay [1] concerns the target heat shock protein 70 (Hsp70), labeled with AlexaFluor488 (UniProt P0DMV8).
Assay [2] has as its target T1, KIX domain of mouse CREB-binding protein (mouse, UniProt P45481 586-665).
Assay [3] addresses T1, KIX domain of mouse CREB-binding protein. The source holds these as a separate data set.

T1 sequence (P45481 586-665): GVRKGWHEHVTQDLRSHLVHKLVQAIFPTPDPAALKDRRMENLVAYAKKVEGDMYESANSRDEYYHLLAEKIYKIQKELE

As to “bcl2 association athanogene 3 (Bag3) (from UniProt O95817 1-575) (natural protein)”, in assay [1], the Kd came out at 26 nM.
On to “heat shock protein 70 (Hsp70), labeled with AlexaFluor488 (from UniProt P0DMV8 1-641) (natural protein)”, for which the dissociation constant (Kd) in assay [1] came out at 1200 nM.

B1: c-Myb peptide, FITC labeled (peptide)
peptide: {FITC-βAla}-KEKRIKELELLLMSTENELKGQQALW-NH2
SMILES: CC[C@H](C)[C@H](NC(=O)[C@H](CCCNC(=N)N)NC(=O)[C@H](CCCCN)NC(=O)[C@H](CCC(=O)O)NC(=O)[C@H](CCCCN)NC(=O)CCNC(=S)Nc1ccc2c(c1)C(=O)OC21c2ccc(O)cc2Oc2cc(O)ccc21)C(=O)N[C@@H](CCCCN)C(=O)N[C@@H](CCC(=O)O)C(=O)N[C@@H](CC(C)C)C(=O)N[C@@H](CCC(=O)O)C(=O)N[C@@H](CC(C)C)C(=O)N[C@@H](CC(C)C)C(=O)N[C@@H](CC(C)C)C(=O)N[C@@H](CCSC)C(=O)N[C@@H](CO)C(=O)N[C@H](C(=O)N[C@@H](CCC(=O)O)C(=O)N[C@@H](CC(N)=O)C(=O)N[C@@H](CCC(=O)O)C(=O)N[C@@H](CC(C)C)C(=O)N[C@@H](CCCCN)C(=O)NCC(=O)N[C@@H](CCC(N)=O)C(=O)N[C@@H](CCC(N)=O)C(=O)N[C@@H](C)C(=O)N[C@@H](CC(C)C)C(=O)N[C@@H](Cc1c[nH]c2ccccc12)C(N)=O)[C@@H](C)O
In the case of B1, binding in assay [2] was characterised by a dissociation constant (Kd) of 3.1 ± 0.5 µM.

B2: E2A17 peptide, FITC labeled (peptide)
peptide: {FITC-βAla}-GTDKELSDLLDFSAMFS-NH2
SMILES: CSCC[C@H](NC(=O)[C@H](C)NC(=O)[C@H](CO)NC(=O)[C@H](Cc1ccccc1)NC(=O)[C@H](CC(=O)O)NC(=O)[C@H](CC(C)C)NC(=O)[C@H](CC(C)C)NC(=O)[C@H](CC(=O)O)NC(=O)[C@H](CO)NC(=O)[C@H](CC(C)C)NC(=O)[C@H](CCC(=O)O)NC(=O)[C@H](CCCCN)NC(=O)[C@H](CC(=O)O)NC(=O)[C@@H](NC(=O)CNC(=O)CCNC(=S)Nc1ccc2c(c1)C(=O)OC21c2ccc(O)cc2Oc2cc(O)ccc21)[C@@H](C)O)C(=O)N[C@@H](Cc1ccccc1)C(=O)N[C@@H](CO)C(N)=O
In the case of B2, binding in assay [3] was characterised by a dissociation constant (Kd) of 1100 ± 200 nM.
